Measured values: patent publication US7960115B2, “DNA binding protein” (Wright State University, priority 2001, dated 2011)

T1: DUE-B binding to dsDNA derived from the DUE sequence (Homo sapiens, UniProt Q8TEA8)
T1 construct: 6his (N); V5 (N); made in house; host or cells: baculovirus / SF9 insect cells
T1 sequence (Q8TEA8 1-209): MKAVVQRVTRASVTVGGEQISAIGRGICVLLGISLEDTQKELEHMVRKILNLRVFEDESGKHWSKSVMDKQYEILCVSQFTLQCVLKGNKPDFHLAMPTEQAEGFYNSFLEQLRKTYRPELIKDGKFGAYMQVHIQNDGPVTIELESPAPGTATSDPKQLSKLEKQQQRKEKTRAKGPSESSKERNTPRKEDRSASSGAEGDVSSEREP


Assays:
[1] = target: T1, DUE-B binding to dsDNA derived from the DUE sequence; test: Fluorescence polarization assay of DUE-B binding to dsDNA
Description: Described herein is the first generation of a novel assay for determining the effects of molecules on the association of DUE-B with double stranded DNA (dsDNA). This assay uses fluorescence polarization to measure the interaction of DUE-B with dsDNA. This assay consists of 4 components: • a) a dsDNA derived from the DUE sequence:
• Both the sense and antisense strands are labeled with FITC at the 3′ end using a 6 carbon spacer. • b) Purified DUE-B. Human DUE-B tagged at the amino terminus with the 6his and V5 tags is synthesized in baculovirus and purified using Ni^2+-Sepharose™ chromatography. • c) Reaction buffer (1×): […] Tris HCl (pH 7.5), 800 mM NaCl, 10 mM EDTA, 100 mM β-mercaptoethanol, 1% (w/v) Tween-20™. • d) Fluorescence polarization plate reader (Tecan Polarion™ or other equivalent device)
A mastermix is prepared consisting of 1× reaction buffer, 2 nM labeled oligo and 0.125 or 0.250 ug DUE-B per 100 ul of mastermix. Compounds (in this case steroids) are added to the bottom of a 96 well plate. 100 ul of mastermix is added to each well and allowed to equilibrate for 30 sec. Fluorescence polarization is then measured.
In FIG. 23A, the effect of increasing concentrations of DUE-B on the polarization of dsDNA was assessed. As expected, polarization of the dsDNA becomes saturated as the DUE-B protein concentration increases. […]

[2] = ATPase activity by thin layer chromatography; assay type: biochemical
Experimental: In FIG. 11, DUE-B expressed in baculovirus infected insect cells was chromotographed as in FIG. 8. To locate the eluted DUE-B, fractions were assayed by ELISA using DUE-B antibody or 6his antibody. ATPase activity was monitored by thin layer chromatography of alternate fractions incubated with gamma-^32P-ATP. […] In FIG. 12, time courses of ATPase activity were measured for three concentrations of DUE-B protein.
Purified DUE-B (200-1000 ng) expressed in bacteria or insect cells, or cell extracts from HeLa cells (˜500 ng) or Xenopus oocytes (˜500 ng), were chromatographed on a one-meter Sephacryl™ S-200 column. Protein elution was monitored by Western blot or by ELISA using antibodies to DUE-B or the his6 tag. ATPase activity was monitored by thin layer chromatography on PEI cellulose (Patrick, S. M., et al., Biochem. Biophys. Acta 1354:279-290, 1997). RNA was isolated using an RNAeasy kit (Qiagen) and DUE-B mRNA expression was monitored by Northern blotting of total RNA electrophoresed on denaturing formaldehyde/agarose gels using a DUE-B cDNA probe labeled with alpha-^32P-dCTP by random primer extension.

[3] = test system: DNA replication in Xenopus oocyte extract; test: Replication in Xenopus oocyte extracts; assay type: biochemical, Xenopus laevis

Molecule	effect on the dsDNA binding of DUE-B on retest ([1]; retest in two different concentrations of DUE-B, FIG. 24B)	increase in polarization of dsDNA by DUE-B ([1]; steroid at 10 uM, FIG. 24A) [%]	ATPase activity ([2]; baculovirus expressed DUE-B, FIG. 12)	ATP hydrolyzed ([2]; present assay conditions)	effect on DNA replication, time course ([3]; double stranded DNA preincubated in extract, DUE-B added with alpha-32P-dCTP, FIG. 18A)	effect on replication of single stranded DNA ([3]; oocyte extract, FIG. 20D)	effect on replication of sperm chromatin ([3]; preincubated 30' with the extract versus added simultaneously with sperm chromatin, FIG. 19)	effect on MCM7 loading (pre-RC formation) on chromatin ([3]; sperm chromatin, anti-MCM7 immunoblot, FIG. 20C)
C[C@]12CC[C@@H]3c4ccc(O)cc4CC[C@H]3[C@@H]1CC(O)C2O (some centres unmarked) [Steroid E2850, 1,3,5(10)-estratrien-3,16,17-triol]	stimulatory effect of E2850 was duplicated	100						
DUE-B: human DNA Unwinding Element binding protein (SEQ ID NO:2), baculovirus expressed, binds the c-myc replication origin DUE (protein, listed as Homo sapiens) MKAVVQRVTRASVTVGGEQISAIGRGICVLLGISLEDTQKELEHMVRKILNLRVFEDESGKHWSKSVMDKQYEILCVSQFTLQCVLKGNKPDFHLAMPTEQAEGFYNSFLEQLRKTYRPELIKDGKFGAYMQVHIQNDGPVTIELESPAPGTATSDPKQLSKLEKQQQRKEKTRAKGPSESSKERNTPRKEDRSASSGAEGDVSSEREP			approximately 30 fmol gamma-32P-ATP hydrolyzed	> 0.5 fmol ATP per minute per fmol protein	transiently inhibited DNA replication	does not inhibit replication of single stranded DNA	more effective at inhibiting replication	does not inhibit MCM7 loading
